# Test results as given in patent US9068000B2, “Monoclonal antibodies for enhancing or inhibiting insulin-like growth factor-I” (The University of North Carolina at Chapel Hill, priority 2004, dated 2015).
# No end group written: not given here.
# What was measured:
# αVβ3 integrin = αVβ3 integrin (Homo sapiens, UniProt P05106); assay: Binding of peptides/ligands to the cysteine loop region of αVβ3
# Excerpt: As noted above, the agonists bind to a specific region on the αVβ3 integrin receptor that has not been identified previously as a region that would result in receptor activation. All agonists that we have determined to bind in this region contain a region of sequence that is commonly termed a heparin binding domain. This heparin binding domain is present in 5 ligands that we have found to date that bind to this region of αVβ3. The documentation that they bind to a specific region of αVβ3 has been provided by two types of experiments. First we have a polyclonal antibody that is known to react with this region of αVβ3, which is the region of the β3 subunit that is located between amino acids at positions 177 and 183.
# A more definitive experiment was conducted in which the identical region of the β1 integrin was substituted by mutagenesis for this […] amino acid region within β3. […] Binding assays were then conducted using these ligands.
# IGF-I = IGF-I biologic actions (DNA synthesis, cell migration, protein synthesis); type: cell-based
# Procedure: Cell Replication. Smooth muscle and/or endothelium are plated at relatively low density, 10^4/cm^2 in low serum (0.2%) containing medium. 24 hr after plating, cells are quiesced in 0.2% platelet poor plasma containing medium. 24 hr later the cultures are exposed to increasing concentrations of IGF-I between 0 and 100 ng/ml and the β3 agonists or antagonists. After 48 hr, the cell cultures are stained with trypan blue and the cell number is determined by manual counting. If β3 is occupied by an agonist then there is at least a 2 fold increase in cell number over this time period. Whereas if an antagonist is added there is often less than 20% increase in cell number.
# Cell Migration. Confluent quiescent smooth muscle or endothelial cell cultures are wounded with a razor blade as described in Maile L A, Imai Y, Clarke J B, Clemmons D R, J. Biol. Chem., 277:1800-1805 (2002). The wounds are examined to determine that a straight edge has been obtained and there are no grooves in the plate. At least five areas that are correctly wounded are then identified with a color marker. IGF-I is added at concentrations of either 50 or 100 ng/ml and various concentrations of the angonists or antagonists are added to at least duplicate cultures. After 72 hr the number of cells that have migrated at least 50 microns from the wound edge are determined and counted following staining with methylene blue. […]
# β3 phosphorylation = assay: β3 phosphorylation, SHP-2 transfer and enhancement of IGF-I receptor activation; type: cell-based
# Excerpt: (§1) Modification of IGF-I actions. […] These assays include but are not totally limited to the following: β3 subunit phosphorylation, β3 binding to SHPS-1, and integrin associated protein (IAP) as a complex, the association of IAP with SHPS-1, SHPS-1 phosphorylation and Shc recruitment to SHPS-1, Shc phosphorylation, stimulation of DNA synthesis and cell replication or cell migration. Ligands that bind to β3 through the cysteine loop domain often induce both conformational changes and β3 phosphorylation. Similarly, stimulation of β3 phosphorylation can induce a conformational change in β3 secondarily. β3 phosphorylation is measured by applying the compound that binds to β3 to smooth muscle and endothelial cells in culture. […] The lysates are either analyzed directly by immunoblotting for β3 to measure […] or immunoprecipitated with an anti β3 antibody and then immunoblotted for phosphotyrosine. Immunoblotting is analyzed following separation of the proteins contained in 30 μl of cell lysate by SDS polyacrylamide gel electrophoresis (SDS-PAGE). […] The amount of phosphorylated β3 is then determined by SDS-PAGE followed by immunoblotting with a monoclonal anti-phosphotyrosine antibody (PY99) (Ling Y, Maile L A, Clemmons D R, Mol Endocrinol, 17:1824-1833 (2003)).
# IGF-I receptor = assay: Activation of the IGF-I receptor by IGF-I; type: cell-based
# Excerpt: as §1
# Sequence of αVβ3 integrin (P05106 27-788): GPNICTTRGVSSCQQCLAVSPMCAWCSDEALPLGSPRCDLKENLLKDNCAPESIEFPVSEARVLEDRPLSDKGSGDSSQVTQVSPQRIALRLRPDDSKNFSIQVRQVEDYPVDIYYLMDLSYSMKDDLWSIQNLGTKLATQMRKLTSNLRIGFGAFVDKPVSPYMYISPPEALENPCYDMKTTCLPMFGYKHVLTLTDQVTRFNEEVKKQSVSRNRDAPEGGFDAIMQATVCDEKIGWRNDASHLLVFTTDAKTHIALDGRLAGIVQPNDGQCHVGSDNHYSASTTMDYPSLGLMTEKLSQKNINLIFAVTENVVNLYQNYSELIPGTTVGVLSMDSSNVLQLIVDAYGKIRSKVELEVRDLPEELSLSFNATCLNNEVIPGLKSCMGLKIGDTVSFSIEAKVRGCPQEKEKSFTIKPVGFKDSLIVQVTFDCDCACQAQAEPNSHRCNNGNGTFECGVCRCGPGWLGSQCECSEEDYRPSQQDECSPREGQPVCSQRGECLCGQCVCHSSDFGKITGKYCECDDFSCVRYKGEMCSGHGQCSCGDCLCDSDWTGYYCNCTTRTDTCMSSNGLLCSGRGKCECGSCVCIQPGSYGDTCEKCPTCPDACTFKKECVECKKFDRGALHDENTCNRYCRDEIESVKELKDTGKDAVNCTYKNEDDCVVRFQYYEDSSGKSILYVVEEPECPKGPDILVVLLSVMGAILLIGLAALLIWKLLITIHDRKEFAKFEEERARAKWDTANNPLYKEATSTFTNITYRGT
# Sequence of αVβ3 integrin (P06756 31-889 partner limits assumed): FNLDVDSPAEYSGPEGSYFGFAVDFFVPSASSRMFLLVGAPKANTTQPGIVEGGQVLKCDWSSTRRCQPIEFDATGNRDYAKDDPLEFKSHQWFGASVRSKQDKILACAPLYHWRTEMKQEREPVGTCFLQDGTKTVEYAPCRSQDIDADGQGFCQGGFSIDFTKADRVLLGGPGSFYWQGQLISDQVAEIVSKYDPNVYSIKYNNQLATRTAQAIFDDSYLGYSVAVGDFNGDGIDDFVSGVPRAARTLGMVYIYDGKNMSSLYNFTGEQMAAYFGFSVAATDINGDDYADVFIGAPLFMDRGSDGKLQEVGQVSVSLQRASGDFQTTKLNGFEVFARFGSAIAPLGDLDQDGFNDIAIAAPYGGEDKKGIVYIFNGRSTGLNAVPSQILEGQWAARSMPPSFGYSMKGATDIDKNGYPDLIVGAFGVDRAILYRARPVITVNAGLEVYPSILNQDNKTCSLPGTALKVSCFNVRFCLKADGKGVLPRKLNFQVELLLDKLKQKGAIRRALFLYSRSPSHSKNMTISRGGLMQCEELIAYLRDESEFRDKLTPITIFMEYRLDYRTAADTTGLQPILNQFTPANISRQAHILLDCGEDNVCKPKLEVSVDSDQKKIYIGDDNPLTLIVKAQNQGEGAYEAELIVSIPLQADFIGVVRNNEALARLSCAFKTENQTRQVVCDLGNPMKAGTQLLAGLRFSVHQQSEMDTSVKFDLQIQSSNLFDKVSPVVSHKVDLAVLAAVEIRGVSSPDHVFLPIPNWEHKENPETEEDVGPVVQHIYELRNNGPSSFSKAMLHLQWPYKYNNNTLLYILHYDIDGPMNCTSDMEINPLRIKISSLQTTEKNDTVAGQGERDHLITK
# Sequence of αVβ3 integrin (P06756 891-1048 partner limits assumed): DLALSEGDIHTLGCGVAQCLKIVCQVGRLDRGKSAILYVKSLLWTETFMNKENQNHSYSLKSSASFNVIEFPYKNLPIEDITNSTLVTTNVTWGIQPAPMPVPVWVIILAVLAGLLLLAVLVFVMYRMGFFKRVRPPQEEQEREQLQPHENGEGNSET
Molecule,binding to αVβ3 / β3 cysteine loop region (αVβ3 integrin),further results
osteopontin,shown to bind,
"cyclized peptide containing this sequence: a cyclized peptide containing the sequence KKQRFRHL (also: cyclized, mode and places not given here)",,inhibitor potency compared with linear KKQRFRHL (IGF-I): more potent inhibitor
vitronectin,shown to bind,
KKQRFRHR (AlphaV beta3 binding sequence from vitronectin),,"stimulation of β3 phosphorylation, SHP-2 transfer to downstream signaling molecules and enhancement of IGF-I receptor activation in response to IGF-I (β3 phosphorylation): full stimulation"
insulin-like binding protein-5 (RKGFYKRK) [IGFBP-5],shown to bind,
KKQRFRHL (Synthetic IGF-I antagonist) [IGF-I antagonist peptide],,inhibition of activation of the IGF-I receptor by IGF-I (IGF-I receptor): approximately 60%; inhibitory activity on IGF-I actions in biologic assays (IGF-I): inhibitory activity
heparin binding epidermal growth factor,shown to bind,
connective tissue growth factor (protein) QNCSGPCRCPDEPAPRCPAGVSLVLDGCGCCRVCAKQLGELCTERDPCDPHKGLFCHFGSPANRKIGVCTAKDGAPCIFGGTVYRSGESFQSSCKYQCTCLDGAVGCMPLCSMDVRLPSPDCPFPRRVKLPGKCCEEWVCDEPKDQTVVGPALAAYRLEDTFGPDPTMIRANCLVQTTEWSACSKTCGMGISTRVTNDNASCRLEKQSRLCMVRPCEADLEENIKKGKKCIRTPKISKPIKFELSGCTSMKTYRAKFCGVCTDGRCCTPHRTTTLPVEFKCPDGEVMKKNMMFIKTCACHYNCPGDNDIFESLYYRKMYGDMA,shown to bind,
